In patent US20150266954A1 (Eli Lilly, published 2015):
Changes are numbered by the printed parent chain. Names may count otherwise. One block for each binder: values may come before it.

Experiments:
[1] = target: T1, human IL-21 (human, UniProt Q9HBE4 32-162); test: cell-based or functional assay
[2] = target: T1, human IL-21; test: cell-based or functional assay; remark: listed apart in the source
[3] = target: T2, cynomolgus monkey IL-21 (cynomolgus monkey, UniProt Q9HBE4 32-162 (human entry)); test: cell-based or functional assay
[4] = target: T1, human IL-21; test: cell-based or functional assay; remark: listed apart in the source
[5] = target: T1, human IL-21; test: assay not named; human IL-21
[6] = target: T2, cynomolgus monkey IL-21; test: assay not named; cynomolgus monkey IL-21
[7] = target: T1, human IL-21; test: KinExA solution equilibrium binding, 37 C, n=3
Method: (§1) Ab327 is an engineered, humanized monoclonal IgG4 antibody that binds and neutralizes human IL-21. The purpose of this study was to determine the binding affinity of Ab327 for human, cynomolgus monkey, mouse, rat, and rabbit IL-21 (the sequences are given below). […] KinExA solution equilibrium binding experiments were performed using a fixed antibody concentration protocol and 2-fold serial dilutions of IL-21. Samples were equilibrated at 37° C. for 6-36 hours prior to analysis. Free antibody in the equilibrated samples was detected using a Dylight 649-conjugated anti-human IgG Fc polyclonal antibody. The resulting percent free antibody versus antigen concentration data were fit to an “affinity, standard” binding model using the KinExA Pro software, and the best fit binding affinity value (KD) was determined
(§2) The average KD from three independent experiments along with the standard deviation (human, cynomolgus monkey, mouse, and rat) or from a single determination (rabbit IL-21) is summarized in Table 3 below (apparent solution equilibrium binding affinity (KD) of Ab327).

[8] = target: T2, cynomolgus monkey IL-21; test: KinExA solution equilibrium binding, 37 C, n=3
Method: as §1, §2

[9] = target: mouse IL-21 (mouse, UniProt Q9ES17 18-146); test: KinExA solution equilibrium binding, 37 C, n=3
Method: as §1, §2

[10] = target: rat IL-21 (rat, UniProt A3QPB9 18-146); test: KinExA solution equilibrium binding, 37 C, n=3
Method: as §1, §2

[11] = target: human IL-9 (human, UniProt P15248 19-144); test: ELISA, Ab327 captured on plate, biotinylated cytokine
Method: (§3) The objective of this study was to determine the binding specificity of Ab327 to human IL-21 as compared with the other members of the common-gamma (γc) chain receptor cytokines. The cytokine receptor γc-chain family consists of six members, IL-2, IL-4, IL-7, IL-9, IL-15, and IL-21. All members of this family signal through receptor complexes that contain the γc subunit. The specificity of Ab327 for binding to other human γc chain cytokine family members was determined using an ELISA. Briefly, Ab327 was captured on an ELISA plate coated with goat anti-human kappa IgG. Cytokines labeled with biotin titrated from 100 nM-780 pM were then added to the plate for 1 hour at 37° C. and any bound cytokine was detected using Neutravidin labeled with alkaline phosphatase. Commercially available mouse monoclonal antibody to IL-2 and goat polyclonal antibodies to IL-4, IL-7, IL-9 and IL-15 captured with donkey anti-goat IgG gave positive signals after binding the biotinylated cytokines and detection with Neutravidin.

[12] = target: human IL-15 (human, UniProt P40933 49-162); test: as above
Method: as §3

[13] = target: human IL-2 (human, UniProt P60568 21-153); test: as above
Method: as §3

[14] = target: T3, human IL-4 (human, UniProt P05112 25-153); test: as above
T3 sequence (looked up): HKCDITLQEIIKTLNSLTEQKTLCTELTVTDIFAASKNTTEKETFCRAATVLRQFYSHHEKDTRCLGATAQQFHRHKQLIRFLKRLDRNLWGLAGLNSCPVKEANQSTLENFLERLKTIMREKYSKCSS
Method: as §3

[15] = target: T4, human IL-7 (human, UniProt P13232 26-177); test: as above
T4 sequence (looked up): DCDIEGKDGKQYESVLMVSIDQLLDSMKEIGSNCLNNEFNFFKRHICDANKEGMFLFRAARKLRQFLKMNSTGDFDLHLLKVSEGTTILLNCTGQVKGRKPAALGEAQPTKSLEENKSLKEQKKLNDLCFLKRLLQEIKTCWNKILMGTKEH
Method: as §3

[16] = target: T1, human IL-21; test: assay not named

T2 sequence (Q9HBE4 other isoform, or with tags, fused parts or gaps): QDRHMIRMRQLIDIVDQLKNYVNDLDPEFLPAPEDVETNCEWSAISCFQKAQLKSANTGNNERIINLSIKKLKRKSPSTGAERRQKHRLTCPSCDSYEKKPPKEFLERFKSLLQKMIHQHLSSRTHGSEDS
T1 sequence (Q9HBE4 32-162): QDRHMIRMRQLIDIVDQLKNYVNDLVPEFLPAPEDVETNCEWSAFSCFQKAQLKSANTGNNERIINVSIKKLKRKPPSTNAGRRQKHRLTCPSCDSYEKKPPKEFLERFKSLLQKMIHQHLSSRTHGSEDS
Chain of rat IL-21 (A3QPB9 18-146): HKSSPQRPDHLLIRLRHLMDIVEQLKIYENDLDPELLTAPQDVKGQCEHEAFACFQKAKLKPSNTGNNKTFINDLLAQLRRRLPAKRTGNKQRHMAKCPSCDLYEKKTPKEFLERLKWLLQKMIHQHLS
Chain of human IL-15 (P40933 49-162 limits assumed): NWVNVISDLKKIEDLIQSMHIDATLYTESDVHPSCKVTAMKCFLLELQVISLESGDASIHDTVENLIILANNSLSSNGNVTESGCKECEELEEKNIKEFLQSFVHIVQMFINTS
Chain of human IL-2 (P60568 21-153 limits assumed): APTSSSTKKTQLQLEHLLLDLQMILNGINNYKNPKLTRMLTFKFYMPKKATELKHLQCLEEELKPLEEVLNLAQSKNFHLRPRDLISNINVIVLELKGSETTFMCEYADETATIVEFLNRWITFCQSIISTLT
Chain of human IL-9 (P15248 19-144 limits assumed): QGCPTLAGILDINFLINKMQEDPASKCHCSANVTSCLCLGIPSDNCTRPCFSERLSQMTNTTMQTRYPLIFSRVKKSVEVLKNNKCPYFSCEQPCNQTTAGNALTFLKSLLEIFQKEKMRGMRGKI

IC50, IL-21-induced proliferation of primary human B cells (3H-thymidine uptake) [1]: 1150 pM
IC50, IM9 pan-STAT-luciferase reporter assay, IL-21 at 66.67 pM [2]: 46.7 pM
IC50, IM9 pan-STAT-luciferase reporter assay, IL-21 at 66.67 pM [3]: 48.3 pM
fold increase of plasma cells (CD38 high, IgD low), donor 1, 26.7 nM antibody (IL-21 without antibody: 176) [4]: 11.7 fold
fold increase of plasma cells (CD38 high, IgD low), donor 2, 26.7 nM antibody (IL-21 without antibody: 114) [4]: 3.38 fold
fold increase of plasma cells (CD38 high, IgD low), donor 3, 26.7 nM antibody (IL-21 without antibody: 47) [4]: 7.81 fold
fold increase of plasma cells (CD38 high, IgD low), donor 4, 26.7 nM antibody (IL-21 without antibody: 68) [4]: 6.87 fold
fold increase of plasma cells (CD38 high, IgD low), donor 5, 26.7 nM antibody (IL-21 without antibody: 22) [4]: 3.64 fold
Kd [5]: ~0.5 pM
Kd [6]: ~0.5 pM
Kd [7]: 0.8 pM
Kd [8]: 0.3 pM
Kd [9]: 240000 pM
Kd [10]: 230000 pM
binding result [11]: no binding (tested: 100 nM)
binding result [12]: no binding (tested: 100 nM)
binding result [13]: no binding (tested: 100 nM)
binding result [14]: no binding (tested: 100 nM)
binding result [15]: no binding (tested: 100 nM)
B1: Ab327 (antibody, human IgG4 S228P, kappa, F234A L235A, V domains shown)
VH: QVQLVQSGAEVKKPGASVKVSCKASGYTFTDYWMHWVRQAPGQGLEWMGLIDTSDVYTIYNQKFKGRVTMTRDTSTSTVYMELSSLRSEDTAVYYCARYGPLAMDYWGQGTLVTVSS
VL: DIQMTQSPSSLSASVGDRVTITCRASQDISNYLNWYQQKPGKAPKLLIYYTSRLHSGVPSRFSGSGSGTDFTLTISSLQPEDFATYYCQQFHTLRTFGGGTKVEIKR
modifications: N-linked glycosylation site at Asn294 of SEQ ID NO:3 may be glycosylated
notes: Engineered, humanized IgG4 (S225P, F231A/L232A) kappa antibody; expressed in HEK293 or CHO cells; also called final engineered humanized antibody; IL-21 antibody

Kd [16]: ~0.5 pM
B2: humanized antibody with CDRs derived from antibody 15M2, utilizing the 1-46 heavy chain human framework and O2 human light chain framework (antibody, V domains shown)
VH: B1 VH with V56S
VL: DIQMTQSPSSLSASVGDRVTITCRASQDISNYLNWYQQKPGKAPKLLIYYTSRLHSGVPSRFSGSGSGTDFTLTISSLQPEDFATYYCQQFNTLRTFGGGTKVEIK
notes: Human IgG4 expression vectors; also called the humanized antibody

Kd [5]: ~2 pM
Kd [6]: ~2 pM
B3: engineered antibody containing both heavy chain Asp55Glu and light chain Asn92His mutations (antibody, V domains shown)
VH: B1 VH with D55E, V56S
VL: B2 VL with N92H
notes: Human IgG4
